Laboratory results published in US20220064316A1 (published 2022).

T1: BCMA (recombinant, form not given) (UniProt Q02223 1-54, limits assumed)
T1 construct: one entry is used for both; also called Bio-BCMA; BCMA substrate
T1 sequence (looked up): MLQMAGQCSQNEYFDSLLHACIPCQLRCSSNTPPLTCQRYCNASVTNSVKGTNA

T2: human BCMA (B-cell maturation antigen) on cells (human, UniProt Q02223 1-184)
T2 sequence (looked up): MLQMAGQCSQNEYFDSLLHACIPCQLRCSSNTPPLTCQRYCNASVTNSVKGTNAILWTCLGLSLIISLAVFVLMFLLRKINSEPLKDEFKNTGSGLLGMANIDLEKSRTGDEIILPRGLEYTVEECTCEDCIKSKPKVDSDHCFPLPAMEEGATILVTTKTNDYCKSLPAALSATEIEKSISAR

B1: BCMA-Fc antigen (R&D Systems) (Fc fusion)
chain: T1 sequence (looked up)
notes: also called BCMA fc fusion protein (R&D Systems, cat #193-BC-050); recombinant BCMA-Fc; not shown: Fc portion of the bought fusion protein
B2: BCMA-4 scFv (139103) (scFv)
scFv: QVQLVESGGGLVQPGRSLRLSCAASGFTFSNYAMSWVRQAPGKGLGWVSGISRSGENTYYADSVKGRFTISRDNSKNTLYLQMNSLRDEDTAVYYCARSPAHYYGGMDVWGQGTTVTVSSASGGGGSGGRASGGGGSDIVLTQSPGTLSLSPGERATLSCRASQSISSSFLAWYQQKPGQAPRLLIYGASRRATGIPDRFSGSGSGTDFTLTISRLEPEDSAVYYCQQYHSSPSWTFGQGTKLEIK
notes: also called B4
B3: BCMA-1 CAR (139100) (other)
chain: QVQLVQSGAEVRKTGASVKVSCKASGYIFDNFGINWVRQAPGQGLEWMGWINPKNNNTNYAQKFQGRVTITADESTNTAYMEVSSLRSEDTAVYYCARGPYYYQSYMDVWGQGTMVTVSSASGGGGSGGRASGGGGSDIVMTQTPLSLPVTPGEPASISCRSSQSLLHSNGYNYLNWYLQKPGQSPQLLIYLGSKRASGVPDRFSGSGSGTDFTLHITRVGAEDVGVYYCMQALQTPYTFGQGTKLEIKTTTPAPRPPTPAPTIASQPLSLRPEACRPAAGGAVHTRGLDFACDIYIWAPLAGTCGVLLLSLVITLYCKRGRKKLLYIFKQPFMRPVQTTQEEDGCSCRFPEEEEGGCELRVKFSRSADAPAYKQGQNQLYNELNLGRREEYDVLDKRRGRDPEMGGKPRRKNPQEGLYNELQKDKMAEAYSEIGMKGERRRGKGHDGLYQGLSTATKDTYDALHMQALPPR
notes: also called ER95-03VA
B4: BCMA-13 scFv (139112) (scFv)
scFv: QVQLVESGGGLVQPGGSLRLSCAVSGFALSNHGMSWVRRAPGKGLEWVSGIVYSGSTYYAASVKGRFTISRDNSRNTLYLQMNSLRPEDTAIYYCSAHGGESDVWGQGTTVTVSSASGGGGSGGRASGGGGSDIRLTQSPSPLSASVGDRVTITCQASEDINKFLNWYHQTPGKAPKLLIYDASTLQTGVPSRFSGSGSGTDFTLTINSLQPEDIGTYYCQQYESLPLTFGGGTKVEIK
notes: also called B13
B5: BCMA-15 scFv (139114) (scFv)
scFv: EVQLVESGGGLVQPGGSLRLSCAVSGFALSNHGMSWVRRAPGKGLEWVSGIVYSGSTYYAASVKGRFTISRDNSRNTLYLQMNSLRPEDTAIYYCSAHGGESDVWGQGTTVTVSSASGGGGSGGRASGGGGSEIVLTQSPGTLSLSPGERATLSCRASQSIGSSSLAWYQQKPGQAPRLLMYGASSRASGIPDRFSGSGSGTDFTLTISRLEPEDFAVYYCQQYAGSPPFTFGQGTKVEIK
notes: also called B15; BMCA-15

Tests used:
[1] = target: T3, BCMA-10 CAR (139109); assay: flow cytometry; BCMA-Fc antigen staining of CAR-transduced SupT1 cells
T3 construct: also called B10; EG63-98LB

[2] = target: T1, BCMA (recombinant, form not given); assay: affinity assay (RU biosensor), 1:1 Binding fit
[3] = target: B1; assay: flow cytometry; BCMA-Fc staining of CAR-transduced JNL cells
Method: Jurkat-NFAT-luciferase (JNL) cells transduced with BCMA CAR constructs were evaluated for activation in response to BCMA-expressing target cell lines. Small-scale viral supernatant samples were generated in HEK293T cells for transduction of JNL cells. On Day 3 following transduction, BCMA CAR-transduced JNL cells were incubated with target cells at an effector-to-target (E:T) ratio of 6:1. Target cell lines were: K562-BCMA (engineered to stably express BCMA), K562 (parental line), and BCMA positive multiple myeloma cell lines, NCI-H929 and RPMI 8226. JNL activation was measured using Bright-Glo substrate (Promega) on Day 4. CAR expression on transduced JNL was assessed on Day 7 with BCMA-Fc antigen and Biotin-Protein L reagent (Table 21).

[4] = target: T2, human BCMA (B-cell maturation antigen) …; assay: cell-based or functional assay

B1: binds [1].

B2 showed a Kd [2] of 1 nM, a koff [2] of 0.0006 s⁻¹ and a kon [2] of 617000 M⁻¹ s⁻¹.

For B3, the “% CAR+ (BCMA-Fc detection)” value [3] was 72.1%, the “JNL binding assay, ratio to K562; K562-BCMA” value [4] was 4.6 ratio and the “JNL binding assay, ratio to K562; NCI-H929” value [4] was 4.55 ratio. For the same binder, the “JNL binding assay, ratio to K562; RPMI 8226” value [4] was 5.06 ratio, the “Proliferation CD3, ratio to no target; K562-BCMA” value [4] was 1.59 ratio and the “Proliferation CD3, ratio to no target; KMS11-luc” value [4] was 1.38 ratio. The “Proliferation CD3, ratio to no target; NCI-H929” value [4] was 4.97 ratio, the “Proliferation CD3, ratio to no target; RPMI 8226” value [4] was 2.96 ratio and the “Proliferation CD4, ratio to no target; K562-BCMA” value [4] was 1.57 ratio. The “Proliferation CD4, ratio to no target; KMS11-luc” value [4] was 1.24 ratio, the “Proliferation CD4, ratio to no target; NCI-H929” value [4] was 5.57 ratio and the “Proliferation CD4, ratio to no target; RPMI 8226” value [4] was 2.43 ratio. For the same binder, the “Proliferation CD8, ratio to no target; K562-BCMA” value [4] was 1.61 ratio, the “Proliferation CD8, ratio to no target; KMS11-luc” value [4] was 1.56 ratio and the “Proliferation CD8, ratio to no target; NCI-H929” value [4] was 4.14 ratio. For the same binder, the “Proliferation CD8, ratio to no target; RPMI 8226” value [4] was 3.58 ratio.

B4 was tested, and the Kd [2] was 24.5 nM, the koff [2] was 0.00161 s⁻¹ and the kon [2] was 65600 M⁻¹ s⁻¹.

With B5 the Kd [2] was 9.3 nM, the koff [2] was 0.00187 s⁻¹ and the kon [2] was 201000 M⁻¹ s⁻¹.
